What all share (conditions): both partners purified
Assay [1] concerns the target T1, myosin S2Δ, the first 126 amino acids of myosin sub-fragment 2 (rat heart) (rat, Alexa 647 (labelled with Alexa 647–NHS, efficiency of ~80%)).
T1 construct: cardiac myosin heavy chain cloned from a rat heart cDNA library; the first 126 amino acids of myosin S2; also called Alexa 647–myosin S2Δ; source: E. coli BL21(DE3)-RIPL, purified (HisTrapFF, TEV, Mono Q); not shown: His6, N-terminal, cleaved
Nature of the assay: MST; isolated m-motif titrated against 100 nmol/liter Alexa 647–myosin S2Δ; MST buffer adjusted to pH 6.2, enhanced gradient standard capillaries; 50 mmol/liter KCl; 30 °C.

In assay [2] the target is T1, myosin S2Δ, the first 126 amino acids …. Nature of the assay: MST; as a2 (pH 7, 50 mmol/liter KCl); 30 °C.
Assay [3] addresses isolated native thin filaments (UniProt P68032 1-377). Nature of the assay: co-sedimentation; high-velocity co-sedimentation of C1mC2 constructs with isolated native thin filaments; performed as described in ref. 15.

As a reminder, the Kd is a measure of binding affinity in units of concentration.

B1: isolated m-motif of rat cardiac myosin-binding protein-C (domain or fragment)
chain: VHEAIGSGDLDLRSAFRRTSLAGTGRRTSDSHEDAGTLDFSSLLKKSSFRRDSKLEAPAEEDVWEILRQAPPSEYERIAFQHGVTDLRGMLKRLKGMKHDE
As for B1, the dissociation constant (Kd) in assay [1] was 41.1 µM.

B2: C1–C2, construct containing Ig domains C1 and C2 of rat cardiac myosin-binding protein-C connected by a flexible linker, with the m-motif deleted (domain or fragment)
chain: PIGLFLMRPQDGEVTVGGSIVFSARVAGASLLKPPVVKWFKGKWVDLSSKVGQHLQLHDSYDRASKVYLFELHITDAQATSAGGYRCEVSTKDKFDSCNFNLTKKSTAFQKKLEPAYQVNKGHKIRLTVELADPDAEVKWLKNGQEIQMSGRYIFESIGAKRTLTISQCSLADDAAYQCVVGGEKCSTELFVKEP
B2: the affinity in assay [2], expressed as Kd, was 477 µM.

B3: C1mC2 of rat cardiac myosin-binding protein-C with three phosphorylatable serines mutated to aspartate (domain or fragment)
chain: PIGLFLMRPQDGEVTVGGSIVFSARVAGASLLKPPVVKWFKGKWVDLSSKVGQHLQLHDSYDRASKVYLFELHITDAQATSAGGYRCEVSTKDKFDSCNFNLTVHEAIGSGDLDLRSAFRRTDLAGTGRRTDDSHEDAGTLDFSSLLKKSDFRRDSKLEAPAEEDVWEILRQAPPSEYERIAFQHGVTDLRGMLKRLKGMKHDEKKSTAFQKKLEPAYQVNKGHKIRLTVELADPDAEVKWLKNGQEIQMSGRYIFESIGAKRTLTISQCSLADDAAYQCVVGGEKCSTELFVKEP
Consider B3, for which the Kd in assay [3] is 16 µM.

The values above are taken from paper PMC6139572, “Structural and functional effects of myosin-binding protein-C phosphorylation in heart muscle are not mimicked by serine-to-aspartate substitutions” (The Journal of Biological Chemistry, 2018).
